Experimental data reported in patent publication US7033773B1, “Screening assays for G protein coupled receptor agonists and antagonists” (The General Hospital Corporation, priority 1997, dated 2006).

Tests used:
rat PTHR [1] = target: T1, rat PTHR (Rattus norvegicus, UniProt P25961); assay: u-PA secretion bioassay in LLC-PK1 cells expressing rat PTHR; assay type: cell-based
T1 construct: expressed in transfected cells; host or cells: LLC-PK1 porcine renal epithelial cells (EW5; also EW29, AR-C38, AR-B44)
T1 sequence (P25961 27-591): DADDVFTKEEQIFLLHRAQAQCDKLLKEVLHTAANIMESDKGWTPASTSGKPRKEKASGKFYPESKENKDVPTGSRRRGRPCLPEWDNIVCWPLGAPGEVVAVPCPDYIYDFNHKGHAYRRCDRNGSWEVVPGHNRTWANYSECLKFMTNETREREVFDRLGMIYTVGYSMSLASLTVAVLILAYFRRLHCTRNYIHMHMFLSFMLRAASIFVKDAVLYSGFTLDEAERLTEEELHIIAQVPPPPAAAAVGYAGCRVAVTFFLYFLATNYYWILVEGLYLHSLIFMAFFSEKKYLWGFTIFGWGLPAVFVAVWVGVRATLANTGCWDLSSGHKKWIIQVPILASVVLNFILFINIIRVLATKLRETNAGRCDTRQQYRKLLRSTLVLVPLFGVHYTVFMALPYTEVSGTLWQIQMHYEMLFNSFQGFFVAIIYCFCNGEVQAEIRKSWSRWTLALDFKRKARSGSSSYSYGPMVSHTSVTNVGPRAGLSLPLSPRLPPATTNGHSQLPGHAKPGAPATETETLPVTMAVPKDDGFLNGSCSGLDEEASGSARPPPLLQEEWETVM

rat PTHR [2] = target: T1, rat PTHR; assay: Cellular phosphate uptake in LLC-PK1 cells expressing rat PTHR; assay type: cell-based
Description: Cells were seeded into 24-well plates at a density of 2.5×10^5 cells/well and cultured for a further 2 days before study. Twenty four hours before assay, cells were refed with 0.5 ml of DMEM containing 0.1% BSA. The next day, cells were refed with serum-free medium (DMEM+0.1% BSA) containing drugs or peptides, and the incubations were continued at 37° C. under 5% CO2 in air for another 6 hr. Cells then were washed with prewarmed Buffer B without BSA and Na2HPO4 and then were incubated at 37° C. for 5 min in 0.25 ml of the same buffer containing [^32P]orthophosphate (4 uCi/ml) and 0.1 mM Na2HPO4. Phosphate uptake was arrested by adding 1 ml of ice-cold sodium-free “stop buffer” [10 mM HEPES (pH 7.4), 140 mM choline chloride, and 5 mM sodium arsenate], followed by two further washes with same buffer. The drained cell layer then was solubilized in 0.5 ml of Lysis Buffer, and cell-associated radioactivity was determined by Cerenkov counting, as previously described (Guo, J., et al., Endocrinology 136:3884-3891 (1995)).
Responses to hPTH(1-34) or hPTH(1-31) (1000 nM) were measured in EW5 cells, which express 320,000 rat PTHRs per cell. Each value is the mean±SEM of a representative experiment performed in triplicate. Similar results were obtained in at least 3 individual experiments. […]

human PTH/PTHrP receptor = target: T2, human PTH/PTHrP receptor (Homo sapiens, UniProt Q03431); assay: Urokinase-type plasminogen activator (u-PA) secretion bioassay in LLC-PK1 cells expressing human PTHR; settings: for secreted u-PA: peptide 1000 nM, 16 hr, mean±SEM
T2 sequence (Q03431 27-593): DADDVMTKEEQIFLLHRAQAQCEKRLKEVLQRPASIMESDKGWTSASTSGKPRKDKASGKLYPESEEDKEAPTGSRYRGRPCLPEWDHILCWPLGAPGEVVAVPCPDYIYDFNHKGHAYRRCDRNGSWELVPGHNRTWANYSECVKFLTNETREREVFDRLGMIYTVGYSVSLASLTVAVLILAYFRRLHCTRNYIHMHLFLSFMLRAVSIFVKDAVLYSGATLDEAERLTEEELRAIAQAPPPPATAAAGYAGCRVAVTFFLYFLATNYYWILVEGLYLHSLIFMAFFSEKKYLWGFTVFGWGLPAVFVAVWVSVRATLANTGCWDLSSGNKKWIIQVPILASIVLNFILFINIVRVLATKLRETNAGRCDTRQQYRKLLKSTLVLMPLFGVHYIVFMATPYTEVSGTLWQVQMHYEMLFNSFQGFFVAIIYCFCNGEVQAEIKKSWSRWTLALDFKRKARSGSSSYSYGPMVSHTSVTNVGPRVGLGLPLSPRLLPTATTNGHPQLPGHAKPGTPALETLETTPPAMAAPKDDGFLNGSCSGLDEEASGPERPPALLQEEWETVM
Description: Cells were seeded into 96-well plates at a density of 6×10^4 cells/well and used the following day. The cells were washed once with 0.2 ml and then refed with 0.1 ml of prewarmed DMEM containing 0.05% BSA. After adding each stimulator, plates were returned to the incubator at 37° C. for 16 h. Conditioned medium (5 ul) then was transferred from each well to a clean microplate. […] Activity was expressed in Ploug units/well, using purified human urokinase (Calbiochem) as a standard.
Cells were incubated with the indicated peptides (1000 nM) for 16 hr before measurement of secreted u-PA present in the medium, which was expressed as a percentage of the activity measured in vehicle-treated controls. Values shown are means±SEM of triplicate determinations.

[3] = EW5 cells, 320,000 rat PTHRs per cell, peptide 1000 nM, mean±SEM

hPTH(1-31)
u-PA Activity (rat PTHR [1]; [3]): 41.2 ± 1.2 units/well | u-PA production at 16 hr (in words) (rat PTHR [1]; EW5 cells, 100 nM of either peptide): identical | stimulation of phosphate uptake (in words) (rat PTHR [2]; EW5 cells): identical | Phosphate uptake (rat PTHR [2]; [3]): 134 ± 3 % of basal | u-PA bioassay activity (in words) (human PTH/PTHrP receptor; HKRK B7 and HKRK B28 cells): fully active | maximal activation of u-PA secretion compared with hPTH(1-34) (human PTH/PTHrP receptor; HKRK B7 cells and AB45 cells): identical to that of hPTH(1-34) | secreted u-PA (human PTH/PTHrP receptor; HKRK B7 cells): 101 ± 9 percentage of the activity measured in vehicle-treated controls | secreted u-PA (human PTH/PTHrP receptor; HKRK B28 cells): 101 ± 6 percentage of the activity measured in vehicle-treated controls
